The labels stand for the following.
T1: TACI (the 265 amino acid form of human TACI, hTACI (265)), expressed on transfected cells (human, UniProt O14836 1-258)
T1 sequence: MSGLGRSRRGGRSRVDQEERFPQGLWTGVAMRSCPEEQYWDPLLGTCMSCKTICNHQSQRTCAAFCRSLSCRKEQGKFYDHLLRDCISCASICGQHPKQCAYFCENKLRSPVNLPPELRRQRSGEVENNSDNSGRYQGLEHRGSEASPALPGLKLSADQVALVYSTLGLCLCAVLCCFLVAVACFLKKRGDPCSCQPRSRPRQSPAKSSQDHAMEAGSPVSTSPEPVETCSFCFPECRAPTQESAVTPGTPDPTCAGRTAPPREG

T2: DcR3-IgG (IgG1-Fc fusion of the ECD of DcR3) (human, UniProt O95407 30-300, limits assumed)
T2 construct: extracellular domain; Control immunoadhesin; not shown: IgG1 Fc
T2 sequence (looked up): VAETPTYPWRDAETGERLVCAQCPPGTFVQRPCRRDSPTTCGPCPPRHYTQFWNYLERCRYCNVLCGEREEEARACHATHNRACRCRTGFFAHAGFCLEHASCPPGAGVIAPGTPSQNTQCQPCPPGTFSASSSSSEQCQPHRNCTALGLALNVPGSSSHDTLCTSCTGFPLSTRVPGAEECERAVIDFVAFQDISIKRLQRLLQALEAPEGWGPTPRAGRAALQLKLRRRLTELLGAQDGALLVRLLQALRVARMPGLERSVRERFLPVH

B1: TACI-ECD.hFc immunoadhesin (amino acids 2-166 of human TACI fused to human IgG1 Fc) (Fc fusion, not shown: a dimerising Fc or GST)
chain: SGLGRSRRGGRSRVDQEERFPQGLWTGVAMRSCPEEQYWDPLLGTCMSCKTICNHQSQRTCAAFCRSLSCRKEQGKFYDHLLRDCISCASICGQHPKQCAYFCENKLRSPVNLPPELRRQRSGEVENNSDNSGRYQGLEHRGSEASPALPGLKLSADQVALVYST
notes: also called TACI-IgG; TACI-Fc
B2: AP-EDA (comprising amino acids 241-391 of EDA) (ligand, UniProt Q92838 241-391, looked up)
chain: AGTRENQPAVVHLQGQGSAIQVKNDLSGGVLNDWSRITMNPKVFKLHPRSGELEVLVDGTYFIYSQVEVYYINFTDFASYEVVVDEKPFLQCTRSIETGKTNYNTCYTAGVCLLKARQKIAVKMVHADISINMSKHTTFFGAIRLGEAPAS
notes: range 241-391; Used as conditioned medium; not shown: human placenta alkaline phosphatase (AP)
B3: Flag-AP-APRIL (ligand)
chain: AVLTQKQKKQHSVLHLVPINATSKDDSDVTEVMWQPALRRGRGLQAQGYGVRIQDAGVYLLYSQVLFQDVTFTMGQVVSREGQGRQETLFRCIRSMPSHPDRAYNSCYSAGVFHLHQGDILSVIIPRARAKLNLSPHGTFLGFVKL
notes: APRIL fused C-terminally to AP, AP fused C-terminally to Flag; not shown: Flag tag of the pCMV-1 Flag vector; human placental alkaline phosphatase
B4: Flag-APRIL (ligand, not shown: small tags and cut ends)
chain: B3 chain
notes: also called Flag-tagged APRIL fusion protein
B5: Flag-LIGHT (ligand, UniProt O43557 82-240, looked up, not shown: small tags and cut ends)
chain: QLIQERRSHEVNPAAHLTGANSSLTGSGGPLLWETQLGLAFLRGLSYHDGALVVTKAGYYYIYSKVQLGGVGCPLGLASTITHGLYKRTPRYPEELELLVSQQSPCGRATSSSRVWWDSSFLGGVVHLEAGEKVVVRVLDERLVRLRDGTRSYFGAFMV
notes: range 82-240; Control ligand; purified on M2 anti-Flag resin; also called Flag-tagged form of LIGHT
B6: BCMA-ECD immunoadhesin (amino acids 5-51 of human BCMA fused to human IgG1 Fc) (Fc fusion, not shown: a dimerising Fc or GST)
chain: AGQCSQNEYFDSLLHACIPCQLRCSSNTPPLTCQRYCNASVTNSVKG
modifications: not fully specified (C-terminus); cysteine pairing not given here; also: C-terminal fusion to human IgG1 Fc (limits not given here)
notes: also called BCMA-IgG; BCMA-Fc
B7: BCMA, expressed on transfected cells (receptor)
chain: MLQMAGQCSQNEYFDSLLHACIPCQLRCSSNTPPLTCQRYCNASVTNSVKGTNAILWTCLGLSLIISLAVFVLMFLLRKISSEPLKDEFKNTGSGLLGMANIDLEKSRTGDEIILPRGLEYTVEECTCEDCIKSKPKVDSDHCFPLPAMEEGATILVTTKTNDYCKSLPAALSATEIEKSISAR

Experiment [1] has as its target B4. As to the kind of experiment: ELISA: Flag-APRIL plus control IgG on BCMA-IgG captured by anti-human Fc; bound Flag-APRIL detected with biotinylated anti-Flag. (In general: ELISA stands for enzyme-linked immunosorbent assay.)
The target in experiment [2] is B4. As to the kind of experiment: ELISA: Flag-APRIL plus control IgG on TACI-IgG captured by anti-human Fc; bound Flag-APRIL detected with biotinylated anti-Flag.
Experiment [3] addresses T3, Human TNF-alpha, membrane form on transfected COS 7 cells (Flag tag inserted between amino acid 70 and 71) (human, UniProt P01375 1-233).
T3 construct: whole, on cells
As to the kind of experiment: Fc fusion on ligand-transfected COS 7 cells, biotinylated anti-human antibody and Cy3-streptavidin staining. As for the experimental part:
Additional assays were conducted to determine whether TACI could serve as a receptor for other members of the TNF family of ligands. COS 7 cells (ATCC) were transiently transfected (using Lipofectamine reagent) with membrane forms of various ligands of TNF family. Among the ligands tested were APRIL, TALL-1, 4-1 BBL, CD27L, CD30L, CD40L, EDA, FasL, GITRL, LT-alpha, OX-40L, RANKL, TNF-alpha, TNF-beta and Apo2L/TRAIL.
For the detection of TNF-alpha expression on the cell surface, a Flag tag was inserted between amino acid 70 and amino acid 71 (using the numbering according to the sequence in Pennica et al., supra). An extracellular region of TALL-1 (aa 75-285; see FIG. 3), 4-1BBL (aa 59-254; Goodwin et al., Eur. J. Immunol., 23:2631-2641 (1993)), CD27 ligand (aa 40-193; Goodwin et al., Cell, 73:447-456 (1993)), CD30 ligand (aa 61-234; Smith et al., Cell, 73:1349-1360 (1993)), RANKL (aa 71-317; see WO98/28426), Apo-2 ligand (aa 40-281; see WO97/25428) or Apo-3L (aa 46-249; see WO99/19490) was individually cloned at the BamHI site. […] For APRIL (see FIG. 4) and EDA (Srivastava et al., supra), full length cDNA clones without Flag tag were used.
Transfected COS 7 cells were subsequently incubated with TACI.ECD.hFC immunoadhesin (prepared as described above). […]

Experiment [4] concerns the target T1, TACI (the 265 amino acid form of human …). As to the kind of experiment: conditioned medium on TACI-transfected COS 7 cells, in situ AP staining. As for the experimental part: In an in vitro assay, COS 7 cells (ATCC) were seeded into 12 well plates 24 hours before transfection. The cells were then transfected with 1 microgram TACI (the 265 amino acid form of human TACI described above, cloned in pRK5B vector, infra) or vector plasmid (pRK5B) alone. 18-24 hours after transfection, the cells were incubated with conditioned medium containing AP-TALL-1; AP-TNF-alpha; or AP-EDA for 1 hour at room temperature and stained for AP activity in situ as described in Tartaglia et al., Cell, 83:1263-1271 (1995).

Experiment [5] addresses T2, DcR3-IgG (IgG1-Fc fusion of the ECD of …). As to the kind of experiment: co-immunoprecipitation (protein A or anti-Flag M2 agarose) and Western blot. As for the experimental part: (§1) One μg of the purified human or Flag-LIGHT (control), Flag-APRIL, or Flag-TALL-1, or Flag-AP-APRIL, or Flag-AP-TALL-1 was incubated with 1 μg of purified human immunoadhesin containing the IgG1-Fc fusion of the ECD of DcR3 (control; Pitti et al., Nature, 396:699-703 (1998)) or TACI or BCMA overnight at 4° C. in duplicate. The TACI-ECD.hFc immunoadhesins were prepared by methods described in Ashkenazi et al., Proc. Natl. Acad. Sci., 88:10535-10539 (1991). The immunoadhesin constructs consisted of amino acids 2-166 of the human TACI polypeptide (see FIG. 1). The TACI-ECD constructs were expressed in CHO cells using a heterologous signal sequence (pre-pro trypsin amino acids 1-17 of pCMV-1 Flag (Sigma)) and encoding the human IgG1 Fc region downstream of the TACI sequence, and then purified by protein A affinity chromatography. The BCMA-ECD immunoadhesins were prepared by methods described in Ashkenazi et al., as cited above. The immunoadhesin constructs consisted of amino acids 5-51 of the human BCMA polypeptide (see FIG. 2). The BCMA-ECD constructs were expressed in CHO cells using a heterologous signal sequence (pre-pro trypsin amino acids 1-17 of pCMV-1 Flag (Sigma)) and encoding the human IgG1 Fc region downstream of the BCMA sequence, and then purified by protein A affinity chromatography.
(§2) One set of reactions (FIG. 8; Panels A-C) was subjected to immunoprecipitation through the receptor-immunoadhesin with protein A-agarose (Repligen). The second set of reactions (FIG. 8; panels D-F) was subjected to immunoprecipitation through the Flag-tagged ligand with Anti-Flag mAb-M2-agarose (Sigma). The immunoprecipitates were then analyzed by Western blot with horseradish peroxidase-conjugated anti-Flag M2 mAb (Sigma) to detect the Flag-tagged ligands (FIGS. 8A-C) or horseradish peroxidase-conjugated goat anti-human IgG pAb (Amersham) to detect the receptor-immunoadhesins (FIGS. 8D-F).
A general note: In western blotting, separated proteins are transferred to a membrane and probed.

Experiment [6] deals with T1, TACI (the 265 amino acid form of human …). The experiment in a line: conditioned medium on receptor-transfected COS 7 cells, in situ AP staining.
Experiment [7] has as its target B1. The experiment in a line: co-immunoprecipitation (protein A or anti-Flag M2 agarose) and Western blot. As for the experimental part: as §1, §2
Experiment [8] addresses B4. The experiment in a line: co-immunoprecipitation and Western blot. On the procedure:
as §1, with “The immunoadhesin constructs consisted of amino acids 5-51 of the human BCMA polypeptide (see FIG. 2). The BCMA-ECD constructs were expressed in CHO cells using a heterologous signal sequence (pre-pro trypsin amino acids 1-17 of pCMV-1 Flag (Sigma)) and encoding the human IgG1 Fc region downstream of the BCMA sequence, and then purified by protein A affinity chromatography.” left out
One set of reactions (FIG. 8; Panels A-C) was subjected to immunoprecipitation through the receptor-immunoadhesin with protein A-agarose (Repligen). […] The immunoprecipitates were then analyzed by Western blot with horseradish peroxidase-conjugated anti-Flag M2 mAb (Sigma) to detect the Flag-tagged ligands (FIGS. 8A-C) or horseradish peroxidase-conjugated goat anti-human IgG pAb (Amersham) to detect the receptor-immunoadhesins (FIGS. 8D-F).

The target in the experiment “Flag-LIGHT” is B5. The experiment in a line: co-immunoprecipitation (protein A or anti-Flag M2 agarose) and Western blot. On the procedure:
as §1, §2

The experiment “Flag-AP-APRIL” concerns the target B3. The experiment in a line: conditioned medium on receptor-transfected COS 7 cells, in situ AP staining.
In experiment [9] the target is T4, Flag-AP-TALL-1 (Example 2 construct, TALL-1 amino acids 135-285) (human, UniProt Q9Y275 135-285).
T4 construct: not shown: Flag tag of the pCMV-1 Flag vector; human placental alkaline phosphatase
The description is as above.

Ends that are not written are not given here.

T3 sequence (P01375 whole entry): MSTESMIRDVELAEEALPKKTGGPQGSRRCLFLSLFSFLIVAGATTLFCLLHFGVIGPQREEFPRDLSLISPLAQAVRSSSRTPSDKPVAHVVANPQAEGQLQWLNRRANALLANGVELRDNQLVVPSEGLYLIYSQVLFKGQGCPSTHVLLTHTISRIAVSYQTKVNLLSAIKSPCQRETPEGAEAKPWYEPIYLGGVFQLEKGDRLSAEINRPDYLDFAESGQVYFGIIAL
T4 sequence (Q9Y275 135-285): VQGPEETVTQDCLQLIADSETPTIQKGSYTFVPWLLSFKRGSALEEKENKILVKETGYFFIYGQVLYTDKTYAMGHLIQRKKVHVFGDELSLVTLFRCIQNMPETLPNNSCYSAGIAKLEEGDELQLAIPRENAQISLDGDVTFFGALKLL

On to IgG Ctrl (antibody), for which the % Max Binding to BCMA with Flag-APRIL [1] is 100%. The % Max Binding to TACI with Flag-APRIL [2] was found to be 100%.

On to B1, for which the binding result in experiment [3] was “no binding (tested: 1 µg/ml)”.

Take B2: in experiment [4], the binding result is listed as “no binding”.

As to B3, the binding result is “no binding (tested: 1 µg of each)” in experiment [5] and “binds” in [6].

For B4, the binding result in [5] is “no binding (tested: 1 µg of each)”.

As for B5, the binding result in experiment [7] is recorded as “no binding (tested: 1 µg of each)”.

On to B6, for which the binding result is “no binding” in [3], “binds” with Flag-APRIL [8] and “no binding (tested: 1 µg of each)” in the experiment with Flag-LIGHT.

Turning to B7, the binding result (with Flag-AP-APRIL; in experiment [9]) was “binds” each time.

These data come from US20060073146A1 (Genentech, published 2006).
